In patent US20120034160A1 (AbbVie / Abbott, published 2012):
Changes are numbered by the printed parent chain.

B1: DVD1263 (bispecific antibody, human IgG1, kappa)
heavy: not shown
light: DIQMTQSPSSLSASVGDRVTITCRASSGIISYIDWFQQKPGKAPKRLIYATFDLASGVPSRFSGSGSGTDYTLTISSLQPEDFATYYCRQVGSYPETFGQGTKLEIKRTVAAPDIQMTQSPSSLSASVGDRVTITCRASGNIHNYLTWYQQTPGKAPKLLIYNAKTLADGVPSRFSGSGSGTDYTFTISSLQPEDIATYYCQHFWSIPYTFGQGTKLQITRTVAAPSVFIFPPSDEQLKSGTASVVCLLNNFYPREAKVQWKVDNALQSGNSQESVTEQDSKDSTYSLSSTLTLSKADYEKHKVYACEVTHQGLSSPVTKSFNRGEC
B2: DVD1262 (bispecific antibody, human IgG1, kappa)
heavy: not shown
light: DIQMTQSPSSLSASVGDRVTITCRASGNIHNYLTWYQQTPGKAPKLLIYNAKTLADGVPSRFSGSGSGTDYTFTISSLQPEDIATYYCQHFWSIPYTFGQGTKLQITRTVAAPDIQMTQSPSSLSASVGDRVTITCRASSGIISYIDWFQQKPGKAPKRLIYATFDLASGVPSRFSGSGSGTDYTLTISSLQPEDFATYYCRQVGSYPETFGQGTKLEIKRTVAAPSVFIFPPSDEQLKSGTASVVCLLNNFYPREAKVQWKVDNALQSGNSQESVTEQDSKDSTYSLSSTLTLSKADYEKHKVYACEVTHQGLSSPVTKSFNRGEC
B3: DVD1630 (bispecific antibody, human IgG1, kappa)
heavy: not shown
light: EIVLTQSPDFQSVTPKEKVTITCRASQDIGSELHWYQQKPDQPPKLLIKYASHSTSGVPSRFSGSGSGTDFTLTINGLEAEDAGTYYCHQTDSLPYTFGPGTKVDIKRTVAAPDIQMTQSPSSLSASVGDRVTITCRASGNIHNYLTWYQQTPGKAPKLLIYNAKTLADGVPSRFSGSGSGTDYTFTISSLQPEDIATYYCQHFWSIPYTFGQGTKLQITRTVAAPSVFIFPPSDEQLKSGTASVVCLLNNFYPREAKVQWKVDNALQSGNSQESVTEQDSKDSTYSLSSTLTLSKADYEKHKVYACEVTHQGLSSPVTKSFNRGEC
notes: V1 wt hIgG1, V2 kappa; also called DVD1630H; DVD1630L
B4: DVD1632 (bispecific antibody, human IgG1, kappa)
heavy: not shown
light: B3 light
notes: V1 wt hIgG1, V2 kappa; also called DVD1632H; DVD1632L
B5: DVD1276 (bispecific antibody, human IgG1, kappa)
heavy: not shown
light: DTQVTQSPSSLSASVGDRVTITCITSTDIDVDMNWYQQKPGKPPKLLISQGNTLRPGVPSRFSSSGSGTDFTFTISSLQPEDFATYYCLQSDNLPLTFGQGTKLEIKRTVAAPEIVLTQSPDFQSVTPKEKVTITCRASQDIGSELHWYQQKPDQPPKLLIKYASHSTSGVPSRFSGSGSGTDFTLTINGLEAEDAGTYYCHQTDSLPYTFGPGTKVDIKRTVAAPSVFIFPPSDEQLKSGTASVVCLLNNFYPREAKVQWKVDNALQSGNSQESVTEQDSKDSTYSLSSTLTLSKADYEKHKVYACEVTHQGLSSPVTKSFNRGEC
notes: DVD-Ig, outer AB270, inner AB274, linker set 1; V1 wt hIgG1, V2 kappa; also called DVD1276H; DVD1276L
B6: DVD1286 (bispecific antibody, human IgG1, kappa)
heavy: not shown
light: B5 light with D141N, P156S, T168I, G197A, T204S, S206T, Y209H, P213Q
notes: DVD-Ig, outer AB270, inner AB275, linker set 1; V1 wt hIgG1, V2 kappa; also called DVD1286H; DVD1286L
B7: DVD1280 (bispecific antibody, human IgG1, kappa)
heavy: not shown
light: B5 light with D1E, Q3T
notes: DVD-Ig, outer AB272, inner AB274, linker set 1; V1 wt hIgG1, V2 kappa; also called DVD1280H; DVD1280L
B8: DVD1290 (bispecific antibody, human IgG1, kappa)
heavy: not shown
light: B5 light with D1E, Q3T, D141N, P156S, T168I, G197A, T204S, S206T, Y209H, P213Q
notes: DVD-Ig, outer AB272, inner AB275, linker set 1; V1 wt hIgG1, V2 kappa; also called DVD1290H; DVD1290L
B9: AB273 (antibody, human IgG1, kappa, V domains shown)
VH: EVQLVQSGAEVKKPGSSVKVSCKASGYTFTDYEIHWVRQAPGQGLEWMGVNDPESGGTFYNQKFDGRVTLTADESTSTAYMELSSLRSEDTAVYYCTRYSKWDSFDGMDYWGQGTTVTVSS
VL: DIQMTQSPSSLSASVGDRVTITCRASSGIISYIDWFQQKPGKAPKRLIYATFDLASGVPSRFSGSGSGTDYTLTISSLQPEDFATYYCRQVGSYPETFGQGTKLEIKR
B10: DVD1272 (bispecific antibody, human IgG1, kappa)
heavy: not shown
light: DIQMTQSPSSLSASVGDRVTITCRASGNIHNYLTWYQQTPGKAPKLLIYNAKTLADGVPSRFSGSGSGTDYTFTISSLQPEDIATYYCQHFWSIPYTFGQGTKLQITRTVAAPEIVLTQSPDFQSVTPKEKVTITCRASQDIGSELHWYQQKPDQPPKLLIKYASHSTSGVPSRFSGSGSGTDFTLTINGLEAEDAGTYYCHQTDSLPYTFGPGTKVDIKRTVAAPSVFIFPPSDEQLKSGTASVVCLLNNFYPREAKVQWKVDNALQSGNSQESVTEQDSKDSTYSLSSTLTLSKADYEKHKVYACEVTHQGLSSPVTKSFNRGEC
notes: V1 wt hIgG1, V2 kappa; also called DVD1272H; DVD1272L
B11: DVD1282 (bispecific antibody, human IgG1, kappa)
heavy: not shown
light: B10 light with D141N, P156S, T168I, G197A, T204S, S206T, Y209H, P213Q
notes: V1 wt hIgG1, V2 kappa; also called DVD1282H; DVD1282L
B12: DVD1284 (bispecific antibody, human IgG1, kappa)
heavy: not shown
light: B10 light with D141N, P156S, T168I, G197A, T204S, S206T, Y209H, P213Q
notes: V1 wt hIgG1, V2 kappa; also called DVD1284H; DVD1284L
B13: DVD1274 (bispecific antibody, human IgG1, kappa)
heavy: not shown
light: B10 light
notes: V1 wt hIgG1, V2 kappa; also called DVD1274H; DVD1274L
B14: DVD1266 (bispecific antibody, human IgG1, kappa)
heavy: not shown
light: DTQVTQSPSSLSASVGDRVTITCITSTDIDVDMNWYQQKPGKPPKLLISQGNTLRPGVPSRFSSSGSGTDFTFTISSLQPEDFATYYCLQSDNLPLTFGQGTKLEIKRTVAAPDIQMTQSPSSLSASVGDRVTITCRASSGIISYIDWFQQKPGKAPKRLIYATFDLASGVPSRFSGSGSGTDYTLTISSLQPEDFATYYCRQVGSYPETFGQGTKLEIKRTVAAPSVFIFPPSDEQLKSGTASVVCLLNNFYPREAKVQWKVDNALQSGNSQESVTEQDSKDSTYSLSSTLTLSKADYEKHKVYACEVTHQGLSSPVTKSFNRGEC
notes: DVD-Ig, outer AB270, inner AB273, linker set 1; V1 wt hIgG1, V2 kappa; also called DVD1266H; DVD1266L
B15: DVD1270 (bispecific antibody, human IgG1, kappa)
heavy: not shown
light: B14 light with D1E, Q3T
notes: DVD-Ig, outer AB272, inner AB273, linker set 1; V1 wt hIgG1, V2 kappa; also called DVD1270H; DVD1270L
B16: DVD1278 (bispecific antibody, human IgG1, kappa)
heavy: not shown
light: DTVVTQSPAFLSVTPGEKVTITCITSTDIDVDMNWYQQKPDQPPKLLISQGNTLRPGVPSRFSSSGSGTDFTFTISSLEAEDAATYYCLQSDNLPLTFGQGTKLEIKRTVAAPEIVLTQSPDFQSVTPKEKVTITCRASQDIGSELHWYQQKPDQPPKLLIKYASHSTSGVPSRFSGSGSGTDFTLTINGLEAEDAGTYYCHQTDSLPYTFGPGTKVDIKRTVAAPSVFIFPPSDEQLKSGTASVVCLLNNFYPREAKVQWKVDNALQSGNSQESVTEQDSKDSTYSLSSTLTLSKADYEKHKVYACEVTHQGLSSPVTKSFNRGEC
notes: DVD-Ig, outer AB271, inner AB274, linker set 1; V1 wt hIgG1, V2 kappa; also called DVD1278H; DVD1278L
B17: DVD1288 (bispecific antibody, human IgG1, kappa)
heavy: not shown
light: B16 light with D141N, P156S, T168I, G197A, T204S, S206T, Y209H, P213Q
notes: DVD-Ig, outer AB271, inner AB275, linker set 1; V1 wt hIgG1, V2 kappa; also called DVD1288H; DVD1288L

How the values were obtained:
Recombinant Human IL-17 [1] = biological target: T1, Recombinant Human IL-17 (human, UniProt Q16552 20-155, limits assumed); assay: cell-based or functional assay
T1 sequence (looked up): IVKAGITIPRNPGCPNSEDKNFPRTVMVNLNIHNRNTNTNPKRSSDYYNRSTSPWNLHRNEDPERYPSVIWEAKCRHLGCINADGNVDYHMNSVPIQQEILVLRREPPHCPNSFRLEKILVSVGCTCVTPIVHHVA

Recombinant Human IL-1β [2] = biological target: Recombinant Human IL-1β (human, UniProt P01584 117-269); assay: cell-based or functional assay
Recombinant Human IL-17 [3] = biological target: T2, Recombinant Human IL-17 (human, UniProt Q16552 20-155, limits assumed); assay: Biacore SPR; N-terminal VD
T2 construct: bought reagent
T2 sequence (looked up): T1 sequence (looked up)
Method in brief: (§1)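 First, goat anti-mouse IgG was immobilized on a CM5 chip by amine coupling. Next, test antibody or DVD-Ig (25 μg/ml) was captured. Then antigen at 10−200 nM flowed over at 25 μl/min, 25° C. Finally, association and dissociation phases were globally fitted to a 1:1 model.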

Recombinant Human IL-1β [4] = biological target: T3, Recombinant Human IL-1β (human, UniProt P01584 117-269); assay: Biacore SPR; C-terminal VD
T3 construct: bought reagent; also called IL-1B
Method in brief: as §1

Recombinant Human IL-1β [5] = biological target: T3, Recombinant Human IL-1β; assay: Biacore SPR; N-terminal VD
Method in brief: as §1

| Binder | Kd (Recombinant Human IL-1β [5]) [nM] | koff (Recombinant Human IL-1β [5]) [s⁻¹] | kon (Recombinant Human IL-1β [5]) [M⁻¹ s⁻¹] | other results |
| --- | --- | --- | --- | --- |
| B1 |  |  |  | N-terminal VD IL-17 Neutralization Assay EC50 (Recombinant Human IL-17 [1]): 0.0052 nM; C-Terminal VD IL-1β Neutralization Assay EC50 (Recombinant Human IL-1β [2]): 20 nM |
| B2 |  |  |  | C-terminal VD IL-17 Neutralization Assay EC50 (Recombinant Human IL-17 [1]): 0.0162 nM; N-Terminal VD IL-1β Neutralization Assay EC50 (Recombinant Human IL-1β [2]): 0.0164 nM |
| B3 |  |  |  | Kd (Recombinant Human IL-17 [3]): 0.0045 nM; koff (Recombinant Human IL-17 [3]): 1.6e-05 s⁻¹; kon (Recombinant Human IL-17 [3]): 3.4e+06 M⁻¹ s⁻¹; Kd (Recombinant Human IL-1β [4]): 0.45 nM; koff (Recombinant Human IL-1β [4]): 7.6e-05 s⁻¹; kon (Recombinant Human IL-1β [4]): 170000 M⁻¹ s⁻¹ |
| B4 |  |  |  | Kd (Recombinant Human IL-17 [3]): 0.005 nM; koff (Recombinant Human IL-17 [3]): 1.6e-05 s⁻¹; kon (Recombinant Human IL-17 [3]): 3.2e+06 M⁻¹ s⁻¹; Kd (Recombinant Human IL-1β [4]): 0.42 nM; koff (Recombinant Human IL-1β [4]): 4.7e-05 s⁻¹; kon (Recombinant Human IL-1β [4]): 110000 M⁻¹ s⁻¹ |
| B5 | 0.082 | 0.00045 | 5.6e+06 |  |
| B6 | 0.07 | 0.0005 | 7.2e+06 |  |
| B7 | 0.08 | 0.00063 | 7.9e+06 |  |
| B8 | 0.086 | 0.00065 | 7.5e+06 |  |
| B9 |  |  |  | IL-17 Neutralization Assay EC50 (Recombinant Human IL-17 [1]): 0.0161 nM |
| B10 | 0.03 | 4.5e-05 | 1.5e+06 |  |
| B11 | 0.043 | 7.2e-05 | 1.7e+06 |  |
| B12 | 0.017 | 1.9e-05 | 1.1e+06 |  |
| B13 | 0.031 | 4e-05 | 1.3e+06 |  |
| B14 | 0.077 | 0.00046 | 6e+06 |  |
| B15 | 0.1 | 0.00054 | 5.3e+06 |  |
| B16 | 0.069 | 0.00047 | 6.9e+06 |  |
| B17 | 0.076 | 0.00046 | 6.1e+06 |  |
